In patent publication US20100240066A1 (MCGILL UNIVERSITY, published 2010):
Read-outs that look alike come from different tables or passages of the source. Where no end group is shown, it is not given here.

T1: E-cadherin/Fc chimeric protein (human, UniProt P12830 155-707)
T1 construct: range 155-707; Bought from R&D Systems; also called E-cad/Fc; human E-cadherin/Fc chimeric protein; not shown: Fc region of human IgG1
T1 sequence (looked up): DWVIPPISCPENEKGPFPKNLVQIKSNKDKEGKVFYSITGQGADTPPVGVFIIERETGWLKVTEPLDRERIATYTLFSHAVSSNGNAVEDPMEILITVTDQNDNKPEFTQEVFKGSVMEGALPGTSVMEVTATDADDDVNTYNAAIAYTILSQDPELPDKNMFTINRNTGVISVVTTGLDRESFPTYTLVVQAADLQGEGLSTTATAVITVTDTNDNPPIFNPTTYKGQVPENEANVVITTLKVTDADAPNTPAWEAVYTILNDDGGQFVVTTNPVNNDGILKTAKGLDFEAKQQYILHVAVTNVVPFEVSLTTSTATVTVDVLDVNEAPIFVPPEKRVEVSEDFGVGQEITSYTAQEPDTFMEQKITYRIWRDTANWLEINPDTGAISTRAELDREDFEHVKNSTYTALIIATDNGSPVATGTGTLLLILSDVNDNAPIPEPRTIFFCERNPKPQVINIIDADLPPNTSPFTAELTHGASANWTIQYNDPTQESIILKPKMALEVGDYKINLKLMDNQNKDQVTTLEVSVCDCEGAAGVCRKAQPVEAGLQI

T2: VE-cadherin/Fc chimeric protein (UniProt P33151 48-593)
T2 construct: Bought from R&D Systems; also called vascular endothelial (VE)-cadherin/Fc chimeric protein; not shown: Fc part not described
T2 sequence (looked up): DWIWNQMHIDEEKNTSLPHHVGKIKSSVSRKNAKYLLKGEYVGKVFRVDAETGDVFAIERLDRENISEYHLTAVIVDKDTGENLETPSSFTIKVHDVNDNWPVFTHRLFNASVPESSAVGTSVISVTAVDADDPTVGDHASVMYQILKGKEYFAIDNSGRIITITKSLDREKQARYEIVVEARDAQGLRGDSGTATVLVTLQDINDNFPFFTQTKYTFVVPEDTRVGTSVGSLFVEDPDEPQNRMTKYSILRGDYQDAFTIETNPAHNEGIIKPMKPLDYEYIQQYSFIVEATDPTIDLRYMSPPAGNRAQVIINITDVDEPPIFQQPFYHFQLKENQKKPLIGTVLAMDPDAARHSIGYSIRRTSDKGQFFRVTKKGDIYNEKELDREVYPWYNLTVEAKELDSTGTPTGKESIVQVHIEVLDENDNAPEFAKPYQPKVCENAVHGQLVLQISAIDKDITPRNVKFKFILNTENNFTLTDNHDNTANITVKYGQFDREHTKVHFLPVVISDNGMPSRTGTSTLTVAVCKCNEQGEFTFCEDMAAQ

T3: N-cadherin/Fc chimeric protein (human, UniProt P19022 160-724)
T3 construct: range 160-724; Bought from R&D Systems; also called N-cad/Fc; human N-cadherin/Fc chimeric protein; not shown: Fc region of human IgG1
T3 sequence (looked up): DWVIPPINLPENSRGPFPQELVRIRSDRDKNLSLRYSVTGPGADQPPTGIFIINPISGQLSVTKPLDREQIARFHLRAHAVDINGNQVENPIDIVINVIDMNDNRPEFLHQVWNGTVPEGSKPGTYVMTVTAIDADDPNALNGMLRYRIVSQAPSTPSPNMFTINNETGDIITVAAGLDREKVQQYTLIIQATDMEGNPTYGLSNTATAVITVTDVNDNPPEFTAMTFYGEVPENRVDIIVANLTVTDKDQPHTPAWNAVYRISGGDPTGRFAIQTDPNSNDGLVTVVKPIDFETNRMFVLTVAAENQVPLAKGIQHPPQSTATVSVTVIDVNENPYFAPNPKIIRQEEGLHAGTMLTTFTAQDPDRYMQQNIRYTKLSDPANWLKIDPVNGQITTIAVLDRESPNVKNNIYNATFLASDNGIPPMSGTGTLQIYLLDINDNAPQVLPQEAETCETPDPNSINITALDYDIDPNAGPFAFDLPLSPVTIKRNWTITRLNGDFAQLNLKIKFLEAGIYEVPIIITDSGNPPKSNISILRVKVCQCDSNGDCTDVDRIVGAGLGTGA


Assays:
Assay in all cases: phage ELISA
[1] = molecular target: T1, E-cadherin/Fc chimeric protein
Method: (§1) The phage clones shown to bind to the N-cadherin/Fc chimeric protein by ELISA were also evaluated for their ability to bind to E-cadherin/Fc and VE-cadherin/Fc chimeric proteins. The phage clones shown to bind to the E-cadherin/Fc chimeric protein by ELISA were also evaluated for their ability to bind to N-cadherin/Fc and VE-cadherin/Fc chimeric proteins. The same ELISA protocol described in the previous section was used to perform this evaluation with the exception that the wells were coated with either 100 ng N-cadherin/Fc, E-cadherin/Fc or VE-cadherin/Fc chimeric protein (R&D Systems, Minneapolis, Minn.).

[2] = molecular target: T2, VE-cadherin/Fc chimeric protein
Method: as §1

[3] = molecular target: T1, E-cadherin/Fc chimeric protein; remark: listed apart in the source
Method: (§2) The binding of each clone to the cadherin/Fc chimeric proteins was confirmed by ELISA. Wells of ProBind microtiter plates (Falcon) were coated with either N-cadherin/Fc or E-cadherin/Fc chimeric protein (100 ng/well) or human IgG1 (which contains the Fc fragment) (100 ng/well). After blocking the nonspecific sites with TBS containing 3% BSA and 1.2 mM CaCl₂ for 1 h at 37° C., phage clones (10⁹ pfu) diluted in TBST containing 3% BSA and 1.2 mM CaCl₂ (100 μl/well). Non-coated wells were also used to exclude any phage that bound to the plastic surface. After 1 h incubation at room temperature, wells were washed 3 times with TBST containing 3% BSA and 1.2 mM CaCl₂. M13 phage without any insert were used to control the non-specific binding of the phage itself to the target. Monoclonal anti-M13 antibody conjugated to horseradish peroxidase (Amersham Biosciences, Piscataway, N.J.) was diluted in TBST containing 3% BSA and 1.2 mM CaCl₂ (1:2,000) and added to each well (100 μl/well). After 1 h incubation at room temperature, wells were washed three times with TBST containing 3% BSA and 1.2 mM CaCl₂ and once with TBS containing 1.2 mM CaCl₂. Horseradish peroxidase substrate, TMB (Sigma), was added to each well (100 μl/well and after color development the reaction was stopped by addition of 100 μl 0.5 M sulphuric acid to each well. The intensity of the color was measured at 450 nm.
as §1

[4] = molecular target: T3, N-cadherin/Fc chimeric protein
Method: as §2, §1

[5] = molecular target: T2, VE-cadherin/Fc chimeric protein; remark: listed apart in the source
Method: as §2, §1

Binder | binding result [1] | binding result [2] | binding result [3] | binding result [4] | binding result [5]
SWTLYTPSGQSK (whole phage in the assay) [phage clone Nc 12-04] | no binding (tested: 10^9 pfu) | no binding (tested: 10^9 pfu) | – | – | –
WTMCYPDTC (not fully specified; cysteine pairing not given here; also: displayed on M13 phage pIII, whole phage in the assay) [phage clone Ec 7] | – | – | binds | binds | no binding (tested: 10^9 pfu)
WQMVLCPAC (not fully specified; cysteine pairing not given here; also: displayed on M13 phage pIII, whole phage in the assay) [phage clone Ec 4] | – | – | binds | binds | no binding (tested: 10^9 pfu)
WELRVSSPC (whole phage in the assay) [phage clone Nc a7] | no binding (tested: 10^9 pfu) | no binding (tested: 10^9 pfu) | – | – | –
WELCVSSSC (not fully specified; cysteine pairing not given here; also: displayed on M13 phage pIII, whole phage in the assay) [phage clone Nc 25] | no binding (tested: 10^9 pfu) | no binding (tested: 10^9 pfu) | – | – | –
WLQPYFPSY (whole phage in the assay) [phage clone Nc 1] | no binding (tested: 10^9 pfu) | no binding (tested: 10^9 pfu) | – | – | –
WEVCLTEKC (not fully specified; cysteine pairing not given here; also: displayed on M13 phage pIII, whole phage in the assay) [phage clone Nc 15] | no binding (tested: 10^9 pfu) | no binding (tested: 10^9 pfu) | – | – | –
WEVRLTEKC (whole phage in the assay) [phage clone Nc a3] | no binding (tested: 10^9 pfu) | no binding (tested: 10^9 pfu) | – | – | –
WELVQCLTC (not fully specified; cysteine pairing not given here, whole phage in the assay) [phage clone Ec 1] | – | – | binds | binds | no binding (tested: 10^9 pfu)
CSRPQSGLC (not fully specified; cysteine pairing not given here; also: displayed on M13 phage pIII, whole phage in the assay) [phage clone Ec a23] | – | – | binds | binds | no binding (tested: 10^9 pfu)
WQWCFKATC (not fully specified; cysteine pairing not given here; also: displayed on M13 phage pIII, whole phage in the assay) [phage clone Ec 21] | – | – | binds | binds | no binding (tested: 10^9 pfu)
CSKYNSPLC (not fully specified; cysteine pairing not given here; also: displayed on M13 phage pIII, whole phage in the assay) [phage clone Ec a4] | – | – | binds | binds | no binding (tested: 10^9 pfu)
WLQPYFPSY (whole phage in the assay) [phage clone Nc a5] | no binding (tested: 10^9 pfu) | no binding (tested: 10^9 pfu) | – | – | –
WTWHWPPCC (whole phage in the assay) [phage clone Ec a22] | – | – | binds | binds | no binding (tested: 10^9 pfu)
WQFCYAQHC (not fully specified; cysteine pairing not given here; also: displayed on M13 phage pIII, whole phage in the assay) [phage clone Ec 2] | – | – | binds | binds | no binding (tested: 10^9 pfu)
SWTLYTPSGQSK (whole phage in the assay) [phage clone Nc 12-a2] | no binding (tested: 10^9 pfu) | no binding (tested: 10^9 pfu) | – | – | –
WTFNFCTAC (not fully specified; cysteine pairing not given here; also: displayed on M13 phage pIII, whole phage in the assay) [phage clone Ec a5] | – | – | binds | binds | no binding (tested: 10^9 pfu)
WQMVLCPAC (not fully specified; cysteine pairing not given here; also: displayed on M13 phage pIII, whole phage in the assay) [phage clone Ec a3] | – | – | binds | binds | no binding (tested: 10^9 pfu)
WHTSWSDTY (whole phage in the assay) [phage clone Nc 19] | no binding (tested: 10^9 pfu) | no binding (tested: 10^9 pfu) | – | – | –
